Source: EP0239400B1

Key:
[1] = target: hen eggwhite lysozyme (hen) (UniProt P00698); assay: fluorescence quench titration with hen eggwhite lysozyme, in solution; reassociated chains
[2] = target: hen eggwhite lysozyme (hen) (UniProt P00698); assay: fluorescence quench titration with hen eggwhite lysozyme, in solution

Chain of UniProt P00698 (P00698 19-147 limits assumed): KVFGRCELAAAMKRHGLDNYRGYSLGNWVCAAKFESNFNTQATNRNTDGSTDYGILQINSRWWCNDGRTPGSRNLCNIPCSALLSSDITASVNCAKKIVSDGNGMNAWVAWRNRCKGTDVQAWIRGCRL

Substance | Kd [1] [nM] | Kd [2] [nM]
recombinant D1.3 (H*₂K₂) (reassociated) (antibody) | 9.2 | 
antilysozyme antibody D1.3 (H₂K₂) | 11.4 | 14.4
